Results from patent publication US20090318342A1, “Compounds” (IMPERIAL INNOVATIONS LIMITED, priority 2005, published 2009).

T1: ADAMTS-4 (as used in Example 4; form not stated) (Homo sapiens (Human)) (UniProt O75173)
T1 sequence: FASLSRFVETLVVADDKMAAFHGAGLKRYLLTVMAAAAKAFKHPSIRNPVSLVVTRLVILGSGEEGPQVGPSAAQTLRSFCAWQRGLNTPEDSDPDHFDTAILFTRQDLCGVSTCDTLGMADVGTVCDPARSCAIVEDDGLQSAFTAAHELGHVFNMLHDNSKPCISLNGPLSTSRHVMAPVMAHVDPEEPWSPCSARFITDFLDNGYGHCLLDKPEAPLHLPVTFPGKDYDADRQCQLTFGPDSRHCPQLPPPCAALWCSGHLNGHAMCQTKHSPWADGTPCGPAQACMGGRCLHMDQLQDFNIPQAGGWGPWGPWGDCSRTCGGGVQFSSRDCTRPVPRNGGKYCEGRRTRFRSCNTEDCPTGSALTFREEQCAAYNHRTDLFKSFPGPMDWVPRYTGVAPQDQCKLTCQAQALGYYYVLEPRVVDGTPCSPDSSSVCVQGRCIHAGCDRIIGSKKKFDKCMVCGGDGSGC


How the values were obtained:
[1] = molecular target: soluble form of TACE in which the transmembrane and C-terminal cytoplasmic domains are deleted (TACE R651) (human) (UniProt P78536)
[2] = molecular target: catalytic domain of stromelysin 1 (MMP-3(ΔC)) (Homo sapiens (Human)) (UniProt P08254); assay: enzyme inhibition kinetics, Ki(app), as in Example 1
[3] = molecular target: TACE/ADAM17 on human monocytic cells (THP-1 cells; monocyte-derived macrophages) (human) (UniProt P78536)
[4] = molecular target: soluble form of TACE in which the transmembrane and C-terminal cytoplasmic domains are deleted (TACE R651) (human) (UniProt P78536); assay: TACE inhibition kinetics at pH 7.5
[5] = molecular target: T1, ADAMTS-4 (as used in Example 4; form not stated) (Homo sapiens (Human)); assay: GST-IGD-FLAG substrate assay, Ki(app)
[6] = molecular target: ADAMTS-5 (Homo sapiens (Human)) (UniProt Q9UNA0); assay: GST-IGD-FLAG substrate assay, Ki(app)
[7] = molecular target: full-length collagenase 1 (MMP-1) (Homo sapiens (Human)) (UniProt P03956); assay: enzyme inhibition kinetics, Ki(app), as in Example 1
[8] = molecular target: gelatinase A (MMP-2) (Homo sapiens (Human)) (UniProt P08253); assay: as above
[9] = molecular target: full-length collagenase 1 (MMP-1) (Homo sapiens (Human)) (UniProt P03956); assay: MMP-1 inhibition under the conditions used for TACE activity measurements
[10] = molecular target: soluble form of TACE in which the transmembrane and C-terminal cytoplasmic domains are deleted (TACE R651) (human) (UniProt P78536); assay: TACE inhibition kinetics, Ki(app), pH 9.0, fit with equation 3 (cooperative)

Chain of full-length collagenase 1 (MMP-1) (Homo sapiens (Human)) (P03956 100-469 limits assumed): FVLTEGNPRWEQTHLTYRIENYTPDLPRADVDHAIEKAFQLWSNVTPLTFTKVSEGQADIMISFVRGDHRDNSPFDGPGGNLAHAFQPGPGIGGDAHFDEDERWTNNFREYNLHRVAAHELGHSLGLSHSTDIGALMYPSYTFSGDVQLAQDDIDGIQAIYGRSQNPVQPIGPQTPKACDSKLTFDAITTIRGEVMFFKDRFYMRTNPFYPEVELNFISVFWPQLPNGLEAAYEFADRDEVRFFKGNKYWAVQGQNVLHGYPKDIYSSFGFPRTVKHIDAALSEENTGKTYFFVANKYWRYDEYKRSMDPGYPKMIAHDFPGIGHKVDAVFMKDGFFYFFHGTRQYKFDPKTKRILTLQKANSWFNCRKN
Chain of gelatinase A (MMP-2) (Homo sapiens (Human)) (P08253 110-660 limits assumed): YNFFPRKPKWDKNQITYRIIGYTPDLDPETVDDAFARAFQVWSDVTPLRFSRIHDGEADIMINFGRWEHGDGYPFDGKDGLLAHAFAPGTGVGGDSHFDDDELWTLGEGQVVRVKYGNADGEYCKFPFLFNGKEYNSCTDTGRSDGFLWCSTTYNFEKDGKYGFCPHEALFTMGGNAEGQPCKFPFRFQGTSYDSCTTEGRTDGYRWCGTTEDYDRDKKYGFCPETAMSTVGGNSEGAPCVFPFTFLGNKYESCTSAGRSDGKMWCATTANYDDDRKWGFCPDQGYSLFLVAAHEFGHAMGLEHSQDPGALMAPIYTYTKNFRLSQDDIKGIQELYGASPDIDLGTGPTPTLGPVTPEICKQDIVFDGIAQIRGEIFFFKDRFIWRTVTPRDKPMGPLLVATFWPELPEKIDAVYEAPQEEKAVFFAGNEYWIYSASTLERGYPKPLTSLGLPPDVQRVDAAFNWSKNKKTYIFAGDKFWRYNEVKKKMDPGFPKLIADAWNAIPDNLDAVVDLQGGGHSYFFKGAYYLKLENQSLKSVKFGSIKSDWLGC

| inhibition of TACE activity (% inhibition at 100 nM) [1] | Ki [2] [nM] | LPS stimulated TNFα release by monocyte-derived macrophages (ELISA) [3] [nM] | Ki [4] [nM] | Ki [5] [nM] | Ki [6] [nM] | Ki [7] [nM] | Ki [8] [nM] | Ki [9] [nM] | Ki [10] [nM] | Binder |
| --- | --- | --- | --- | --- | --- | --- | --- | --- | --- | --- |
| 80 to 90 | > 250 |  |  |  |  |  |  |  |  | (-2A)N-TIMP-3 (protein) AACTCSPSHPQDAFCNSDIVIRAKVVGKKLVKEGPFGTLVYTIKQMKMYRGFTKMPHVQYIHTEASESLCGLKLEVNKYQYLLTGRVYDGKMYTGLCNFVERWDQLTLSQRKGLNYRYHLGCN |
|  | 1.8 | 180 | 26 | 2.4 | 0.4 | 8.2 | 5.1 | 1.6 | 13.7 | wild-type N-TIMP-3 (N-terminal inhibitory domain of tissue inhibitor of metalloproteinase-3), C-terminally His-tagged (protein) CTCSPSHPQDAFCNSDIVIRAKVVGKKLVKEGPFGTLVYTIKQMKMYRGFTKMPHVQYIHTEASESLCGLKLEVNKYQYLLTGRVYDGKMYTGLCNFVERWDQLTLSQRKGLNYRYHLGCN |
